Publication PMC10698284

Columns and labels:
[1] = dox-induced expression and FLAG pull-down efficiency; settings: control: WTseq
[2] = surface anti-SLC3A2 antibody binding at 4 °C, imaging; settings: glycan lost; control: WTseq
[3] = anti-SLC3A2 antibody uptake, 10 min 37 °C; settings: glycan lost; control: WTseq
[4] = response of SLC3A2 endocytosis to 5 min inhibitor; settings: glycan lost; control: WTseq (inhibitor reduced internalization by ∼50%)
[5] = endosomal distribution of internalised SLC3A2, confocal; settings: glycan lost; control: WTseq (small peripheral endosomes)
[6] = Gal3-488 internalisation, 10 min 37 °C; settings: glycan lost; control: WTseq

B1: SLC3A2 (4F2hc, CD98): N381D (protein)
parent chain: MELQPPEASIAVVSIPRQLPGSHSEAGVQGLSAGDDSELGSHCVAQTGLELLASGDPLPSASQNAEMIETGSDCVTQAGLQLLASSDPPALASKNAEVTGTMSQDTEVDMKEVELNELEPEKQPMNAASGAAMSLAGAEKNGLVKIKVAEDEAEAAAAAKFTGLSKEELLKVAGSPGWVRTRWALLLLFWLGWLGMLAGAVVIIVRAPRCRELPAQKWWHTGALYRIGDLQAFQGHGAGNLAGLKGRLDYLSSLKVKGLVLGPIHKNQKDDVAQTDLLQIDPNFGSKEDFDSLLQSAKKKSIRVILDLTPNYRGENSWFSTQVDTVATKVKDALEFWLQAGVDGFQVRDIENLKDASSFLAEWQNITKGFSEDRLLIAGTNSSDLQQILSLLESNKDLLLTSSYLSDSGSTGEHTKSLVTQYLNATGNRWCSWSLSQARLLTSFLPAQLLRLYQLMLFTLPGTPVFSYGDEIGLDAAALPGQPMEAPVMLWDESSFPDIPGAVSANMTVKGQSEDPGSLLSLFRRLSDQRSKERSLLHGDFHAFSAGPGLFSYIRHWDQNERFLVVLNFGDVGLSAGLQASDLPASASLPAKADLLLSTQPGREEGSPLELERLKLEPHEGLLLRFPYAA
With B1 the expression_or_secretion ([1]; glycan lost) was “no change”, the localisation_or_trafficking [2] was “no change” and the localisation_or_trafficking [3] was “increases”. For the same protein, the localisation_or_trafficking [4] was “abolishes”, the localisation_or_trafficking [5] was “changes” and the “other: Gal3 uptake by expressing cells” value [6] was “decreases”.

B2: SLC3A2 (4F2hc, CD98): A273N (protein)
parent chain: MELQPPEASIAVVSIPRQLPGSHSEAGVQGLSAGDDSELGSHCVAQTGLELLASGDPLPSASQNAEMIETGSDCVTQAGLQLLASSDPPALASKNAEVTGTMSQDTEVDMKEVELNELEPEKQPMNAASGAAMSLAGAEKNGLVKIKVAEDEAEAAAAAKFTGLSKEELLKVAGSPGWVRTRWALLLLFWLGWLGMLAGAVVIIVRAPRCRELPAQKWWHTGALYRIGDLQAFQGHGAGNLAGLKGRLDYLSSLKVKGLVLGPIHKNQKDDVAQTDLLQIDPNFGSKEDFDSLLQSAKKKSIRVILDLTPNYRGENSWFSTQVDTVATKVKDALEFWLQAGVDGFQVRDIENLKDASSFLAEWQNITKGFSEDRLLIAGTNSSDLQQILSLLESNKDLLLTSSYLSDSGSTGEHTKSLVTQYLNATGNRWCSWSLSQARLLTSFLPAQLLRLYQLMLFTLPGTPVFSYGDEIGLDAAALPGQPMEAPVMLWDESSFPDIPGAVSANMTVKGQSEDPGSLLSLFRRLSDQRSKERSLLHGDFHAFSAGPGLFSYIRHWDQNERFLVVLNFGDVGLSAGLQASDLPASASLPAKADLLLSTQPGREEGSPLELERLKLEPHEGLLLRFPYAA
With B2 the expression_or_secretion ([1]; glycan gained) was “no change”.

B3: SLC3A2 (4F2hc, CD98): A273N + D355N (protein)
parent chain: MELQPPEASIAVVSIPRQLPGSHSEAGVQGLSAGDDSELGSHCVAQTGLELLASGDPLPSASQNAEMIETGSDCVTQAGLQLLASSDPPALASKNAEVTGTMSQDTEVDMKEVELNELEPEKQPMNAASGAAMSLAGAEKNGLVKIKVAEDEAEAAAAAKFTGLSKEELLKVAGSPGWVRTRWALLLLFWLGWLGMLAGAVVIIVRAPRCRELPAQKWWHTGALYRIGDLQAFQGHGAGNLAGLKGRLDYLSSLKVKGLVLGPIHKNQKDDVAQTDLLQIDPNFGSKEDFDSLLQSAKKKSIRVILDLTPNYRGENSWFSTQVDTVATKVKDALEFWLQAGVDGFQVRDIENLKDASSFLAEWQNITKGFSEDRLLIAGTNSSDLQQILSLLESNKDLLLTSSYLSDSGSTGEHTKSLVTQYLNATGNRWCSWSLSQARLLTSFLPAQLLRLYQLMLFTLPGTPVFSYGDEIGLDAAALPGQPMEAPVMLWDESSFPDIPGAVSANMTVKGQSEDPGSLLSLFRRLSDQRSKERSLLHGDFHAFSAGPGLFSYIRHWDQNERFLVVLNFGDVGLSAGLQASDLPASASLPAKADLLLSTQPGREEGSPLELERLKLEPHEGLLLRFPYAA
For B3, the expression_or_secretion ([1]; glycan gained) was “no change”.

B4: SLC3A2 (4F2hc, CD98): N365D (protein)
parent chain: MELQPPEASIAVVSIPRQLPGSHSEAGVQGLSAGDDSELGSHCVAQTGLELLASGDPLPSASQNAEMIETGSDCVTQAGLQLLASSDPPALASKNAEVTGTMSQDTEVDMKEVELNELEPEKQPMNAASGAAMSLAGAEKNGLVKIKVAEDEAEAAAAAKFTGLSKEELLKVAGSPGWVRTRWALLLLFWLGWLGMLAGAVVIIVRAPRCRELPAQKWWHTGALYRIGDLQAFQGHGAGNLAGLKGRLDYLSSLKVKGLVLGPIHKNQKDDVAQTDLLQIDPNFGSKEDFDSLLQSAKKKSIRVILDLTPNYRGENSWFSTQVDTVATKVKDALEFWLQAGVDGFQVRDIENLKDASSFLAEWQNITKGFSEDRLLIAGTNSSDLQQILSLLESNKDLLLTSSYLSDSGSTGEHTKSLVTQYLNATGNRWCSWSLSQARLLTSFLPAQLLRLYQLMLFTLPGTPVFSYGDEIGLDAAALPGQPMEAPVMLWDESSFPDIPGAVSANMTVKGQSEDPGSLLSLFRRLSDQRSKERSLLHGDFHAFSAGPGLFSYIRHWDQNERFLVVLNFGDVGLSAGLQASDLPASASLPAKADLLLSTQPGREEGSPLELERLKLEPHEGLLLRFPYAA
For B4, the expression_or_secretion ([1]; glycan lost) was “no change”, the localisation_or_trafficking [2] was “no change” and the localisation_or_trafficking [3] was “increases”. The localisation_or_trafficking [4] was “changes”, the localisation_or_trafficking [5] was “changes” and the “other: Gal3 uptake by expressing cells” value [6] was “increases”.

B5: SLC3A2 (4F2hc, CD98): D355N + D492N (protein)
parent chain: MELQPPEASIAVVSIPRQLPGSHSEAGVQGLSAGDDSELGSHCVAQTGLELLASGDPLPSASQNAEMIETGSDCVTQAGLQLLASSDPPALASKNAEVTGTMSQDTEVDMKEVELNELEPEKQPMNAASGAAMSLAGAEKNGLVKIKVAEDEAEAAAAAKFTGLSKEELLKVAGSPGWVRTRWALLLLFWLGWLGMLAGAVVIIVRAPRCRELPAQKWWHTGALYRIGDLQAFQGHGAGNLAGLKGRLDYLSSLKVKGLVLGPIHKNQKDDVAQTDLLQIDPNFGSKEDFDSLLQSAKKKSIRVILDLTPNYRGENSWFSTQVDTVATKVKDALEFWLQAGVDGFQVRDIENLKDASSFLAEWQNITKGFSEDRLLIAGTNSSDLQQILSLLESNKDLLLTSSYLSDSGSTGEHTKSLVTQYLNATGNRWCSWSLSQARLLTSFLPAQLLRLYQLMLFTLPGTPVFSYGDEIGLDAAALPGQPMEAPVMLWDESSFPDIPGAVSANMTVKGQSEDPGSLLSLFRRLSDQRSKERSLLHGDFHAFSAGPGLFSYIRHWDQNERFLVVLNFGDVGLSAGLQASDLPASASLPAKADLLLSTQPGREEGSPLELERLKLEPHEGLLLRFPYAA
With B5 the expression_or_secretion ([1]; glycan gained) was “no change”.
